Measured values from patent US20260060994A1, “GLYCOSYLATED COMPOSITIONS AND METHODS OF USE” (Cy Biopharma AG, priority 2023, published 2026).

Columns and labels:
[1] = Pharmacokinetic experiment in mice, plasma and brain, LC-MS/MS; type: in vivo, C57Bl/6J mice
Experimental: In a pharmacokinetic experiment in C57Bl/6J mice (3 animals per timepoint; schedule shown below) two example compounds, Cy1 (4-HO-EPT glycoside) and Cy2 (4-HO-DMT glycoside) were dosed at two different concentrations (20 mg/kg dose shown here) and the parent compounds and their de-glycosylated forms, 4-HO-EPT and psilocin (4-HO-DMT), respectively, were measured by LC-MS/MS in plasma and brain tissue samples. For comparison, psilocybin was dosed at 1.5 mg/kg orally and plasma and brain tissue concentrations of psilocin (4-HO-DMT) were measured. Samples were collected at four or five different timepoints (from 10-minutes post dosing up to 6-hours post dosing) following the test article administration.
Schedule of pharmacokinetic experiment shown below.
Results are reported in ng/mL for the concentration in plasma and in ng/g tissue for the concentration measured in brain samples.
Results: The graphs in FIG. 35, FIG. 36, FIG. 37, and FIG. 38 display the time course of concentrations of compounds as indicated. For each time point the data for the individual animals are plotted.

[2] = Glycosylation of 4-HO-MET by GLY enzymes (UDP-glucose), LC-UV/MS; type: biochemical; conditions: 0.5 mM 4-OH-MET, 1.25 mM UDP-glucose, 25% (v/v) GLY enzyme, 24 h at 30° C.; estimate from UV peak areas
Experimental: 4-HO-MET was dissolved in 100% (v/v) DMSO to a concentration of 10 mM. The solution was stored at −20° C. prior to use.
FastAP phosphatase (1 U/uL) from ThermoFisher Scientific (catalog no. EF0651).
GLY enzyme suspensions contain 10 mM Tris-HCl at pH7.4, 250 mM imidazole and 50% (v/v) glycerol.
(§1) The assay conditions were: • 100 mM Tris-HCl, pH 7.4 • 5 mM MgCl2 • 1 mM KCl • 1.25 mM UDP-glucose • 0.5 mM 4-OH-MET • 5% (v/v) DMSO • 0.1 U/uL Fast AP phosphatase • 25% (v/v) GLY enzyme
(§2) Incubation was 24 house at 30° C. Reactions were terminated adding 3 volumes of 75% (v/v) ethanol.
(§3) LC separation was performed using an Agligen 1290 Infinity II UHPLC equipped with a Phenomenex Kinetex XB-C18 column (1.7 um, 100 angstroms, 100×2.1 mm) and 4-HO-MET was detected by absorbance at 210 nm and 268 nm with an Agilent 1260 Infinity II DAD.
(§4) 0.1% Formic acid in water (A) and 0.1% Formic acid in acetonitrile (B) were used as the mobile phases for the elution gradient, with a flow rate of 0.4 ml/min. Retention time for 4-HO-MET using this type of instrument under these condition was 2.6 min. The system was coupled to an Ultivo Triple Quadrupole MS. To verify the presence of possible glycoside products, as SIM (Selected Ion Monitoring) method was used on the MS to analyse for the m/z 381 (theoretical mass to chart ratio of 4-HO-MET-glucoside) and m/z 219 (theoretical mass to charge ratio of 4-HO-MET).
As standard, 4-HO-MET solutions at a concentrations of 500, 250, 125, 62.5, and 31.25 uM were prepared from the 10 mM stock and used for caliboration.
A representative example of the chromatograms obtained with a wavelength of 268 nm for the standard solutions resuspended in the reaction buffer, and the corresponding MS-SIM signal, is shown in FIG. 16. The peak corresponding to 4-HO-MET is indicated.
When analyzing the GLY reactions, 30 of them gave an additional peak with retention time 2.2 min (i.e. in the expected region for a 4-HO-MET glucoside) and molecular mass compatible with the expected glucoside product, together with a corresponding decrease in substrate concentration, compared to the no-enzyme controls.
The method was repeated using various GLY enzymes to produce 4-HO-MET glucosides.
(§5) The enzymes giving the additional peak putatively corresponding to the 4-HO-MET-β-D-glucoside are listed below. […] A correct quantification of the product is not possible without a standard for the specific molecule. However, based on the assumption that the ratio area-to-concentration in the UV chromatograms will be similar to 4-HO-MET, estimates of the relative abundance for the additional peak are also given, expressed as percentage of converted 4-HO-MET. GLY enzymes hits are ranked according to their estimated conversion efficiency.

[3] = Glycosylation of 4-OH-EPT by GLY enzymes (UDP-glucose), LC-UV/MS; type: biochemical; conditions: conditions of Examples 1 and 2 repeated for 4-OH-EPT; estimate from UV peak areas
Experimental: as §1, §2, §3, §4, §5
The experiments described in Examples 1 and 2 above were repeated for 4-OH-EPT.
Below is the corresponding data for 4-OH-EPT.

[4] = Glycosylation of 5-HO-DMT by GLY enzymes (UDP-glucose), LC-UV/MS; type: biochemical; conditions: conditions of Examples 1 and 2 repeated for 5-HO-DMT
Experimental: as §1, §2, §3, §4, §5
(§6) The experiments described in Examples 1 and 2 above were repeated for 4-OH-MiPT, 4-HO-DMT and 5-HO-DMT
(§7) Below is the corresponding data for 4-OH-DMT and 5-HO-DMT.

[5] = Glycosylation of 4-OH-MiPT by GLY enzymes (UDP-glucose), LC-UV/MS; type: biochemical; conditions: conditions of Examples 1 and 2 repeated for 4-OH-MiPT; estimate from UV peak areas
Experimental: as §1, §2, §3, §4, §5, §6
Below is the corresponding data for 4-OH-MiPT.

[6] = Glycosylation of 4-OH-DMT by GLY enzymes (UDP-glucose), LC-UV/MS; type: biochemical; conditions: conditions of Examples 1 and 2 repeated for 4-HO-DMT; estimate from UV peak areas
Experimental: as §1, §2, §3, §4, §5, §6, §7

Molecule | period of exposure in brain ([1]; higher doses (20 mg/kg p.o.), brain, as compared to psilocybin 1.5 mg/kg p.o.) | period of exposure in plasma ([1]; higher doses (20 mg/kg p.o.), plasma, as compared to psilocybin 1.5 mg/kg p.o.) | time to peak brain concentration ([1]; p.o. single dose, brain, as compared to the administration of psilocybin 1.5 mg/kg p.o.) | time to peak plasma concentration ([1]; p.o. single dose, plasma, as compared to the administration of psilocybin 1.5 mg/kg p.o.) | 4-OH-MET GLY % (percentage of converted 4-HO-MET) [2] | 4-OH-EPT GLY % (percentage of converted 4-OH-EPT) [3] | 5-OH-DMT GLY % [4] | 4-OH-MiPT GLY % (percentage of converted 4-OH-MiPT) [5] | 4-OH-DMT GLY % [6]
CCCN(CC)CCc1c[nH]c2cccc(O[C@@H]3O[C@H](CO)[C@@H](O)[C@H](O)[C@H]3O)c12 [Cy1, 4-HO-EPT glycoside] | extended period of exposure | extended period of exposure | extended | extended |  |  |  |  | 
GLY91: glycosyltransferase (UGT), SEQ ID NO: 12 (protein) MGKQEDAELVIIPFPFSGHILATIELAKRLISQDNPRIHTITILYWGLPFIPQADTIAFLRSLVKNEPRIRLVTLPEVQDPPPMELFVEFAESYILEYVKKMVPIIREALSTLLSSRDESGSVRVAGLVLDFFCVPMIDVGNEFNLPSYIFLTCSAGFLGMMKYLPERHREIKSEFNRSFNEELNLIPGYVNSVPTKVLPSGLFMKETYEPWVELAERFPEAKGILVNSYTALEPNGFKYFDRCPDNYPTIYPIGPILCSNDRPNLDLSERDRILKWLDDQPESSVVFLCFGSLKSLAASQIKEIAQALELVGIRFLWSIRTDPKEYASPNEILPDGFMNRVMGLGLVCGWAPQVEILAHKAIGGFVSHCGWNSILESLRFGVPIATWPMYAEQQLNAFTIVKELGLALEMRLDYVSEYGEIVKADEIAGAVRSLMDGEDVPRRKLKEIAEAGKEAVMDGGSSFVAVKRFIDGL |  |  |  |  | 20.7% | 5.4% | 1% |  | 
GLY87: glycosyltransferase (UGT), SEQ ID NO: 10 (protein) MGKQEDAELVIIPFPFSGHILATIELAKRLISQDNPRIHTITILYWGLPFIPQADTIAFLRSLVKNEPRIRLVTLPEVQDPPPMELFVEFAESYILEYVKKMVPIIREALSTLLSSRDESGSVRVAGLVLDFFCVPMIDVGNEFNLPSYIFLTCSAGFLGMMKYLPERHREIKSEFNRSFNEELNLIPGYVNSVPTKVLPSGLFMKETYEPWVELAERFPEAKGILVNSYTALEPNGFKYFDRCPDNYPTIYPIGPILNLENKKDDAKTDEIMRWLNEQPESSVVFLCFGSMGSFNEKQVKEIAVAIERSGHRFLWSLRRPTPKEKIEFPKEYENLEEVLPEGFLKRTSSIGKVIGWAPQMAVLSHPSVGGFVSHCGWNSTLESMWCGVPMAAWPLYAEQTLNAFLLVVELGLAAEIRMDYRTDTKAGYDGGMEVTVEEIEDGIRKLMSDGEIRNKVKDVKEKSRAAVVEGGSSYASIGKFIEHVSNVTI |  |  |  |  | 95.2% | 68.9% | 3% | 76.4% | 85.3%
GLY70: glycosyltransferase (UGT), SEQ ID NO: 2 (protein) MAKQQEAELIFIPFPIPGHILATIELAKRLISHQPSRIHTITILHWSLPFLPQSDTIAFLKSLIETESRIRLITLPDVQNPPPMELFVKASESYILEYVKKMVPLVRNALSTLLSSRDESDSVHVAGLVLDFFCVPLIDVGNEFNLPSYIFLTCSASFLGMMKYLLERNRETKPELNRSSDEETISVPGFVNSVPVKVLPPGLFTTESYEAWVEMAERFPEAKGILVNSFESLERNAFDYFDRRPDNYPPVYPIGPILCSNDRPNLDLSERDRILKWLDDQPESSVVFLCFGSLKSLAASQIKEIAQALELVGIRFLWSIRTDPKEYASPNEILPDGFMNRVMGLGLVCGWAPQVEILAHKAIGGFVSHCGWNSILESLRFGVPIATWPMYAEQQLNAFTIVKELGLALEMRLDYVSEYGEIVKADEIAGAVRSLMDGEDVPRRKLKEIAEAGKEAVMDGGSSFVAVKRFIDGL |  |  |  |  | 98.6% | 80.5% | 6% | 58.4% | 89.3%
GLY153: glycosyltransferase (UGT), SEQ ID NO: 20 (protein) MAETDSPPHVAILPSPGMGHLIPLVELAKRLVHQHNLSVTFIIPTDGSPSKAQRSVLGSLPSTIHSVFLPPVNLSDLPEDVKIETLISLTVARSLPSLRDVLSSLVASGTRVVALVVDLFGTDAFDVAREFKASPYIFYPAPAMALSLFFYLPKLDEMVSCEYSEMQEPVEIPGCLPIHGGELLDPTRDRKNDAYKWLLHHSKRYRLAEGVMVNSFIDLERGALKALQEVEPGKPPVYPVGPLVNMDSNTSGVEGSECLKWLDDQPLGSVLFVSFGSGGTLSFDQITELALGLEMSEQRFLWVARVPNDKVANATYFSVDNHKDPFDFLPKGFLDRTKGRGLVVPSWAPQAQVLSHGSTGGFLTHCGWNSTLESVVNAVPLIVWPLYAEQKMNAWMLTKDVEVALRPKASENGLIGREEIANIVRGLMEGEEGKRVRNRMKDLKDAAAEVLSEAGSSTKALSEVARKWKNHKCTQDCN |  |  |  |  | 6% |  | 5% |  | 
